B1: Twister Ribozyme (parent)
chain: AACACUGCCAAUGCCGGUCCCAAGCCCGGAUAAAAGUGGAGGGGGCGG

Experimental findings from the RNAGym collection of RNA variant scans (doi:10.7554/elife.80360) are described below.

The variants in the data set derive from B1. The data set can be described thus: self-cleavage, relative activity (ratio to wild type); higher = more cleavage; co-transcriptional.
Consider G38U C46A, for which the self-cleavage came to 0.794. In the case of G36A G47C, the self-cleavage turned out to be 0.234. To G36C G48A belongs 0.422. For G36C G48C the value was 0.657; for A35U G45A, 1.02; for G36A G41U, 0.131. For A40C G44C the value was 0.226.

For the variant G36U G45A, the self-cleavage was determined as 0.4. As to G42A G47C, the self-cleavage turned out to be 0.241. For G42A G47U the value was 0.325. To U37G G38U belongs 0.127; to U37G G38A, 0.774. To G36U A40G belongs 0.125; to G36A U37A, 0.166; to G36A U37G, 0.32.

With G36A G42A, the self-cleavage is 0.141. Regarding G43A G47U, the self-cleavage turned out to be 0.175.

Consider G39C C46G, for which the self-cleavage is 0.126.

Take G39C C46A: the self-cleavage came out at 0.13.

Consider A35U G42U, for which the self-cleavage was 0.374. To G41A G43U belongs 0.135; to G41A G43C, 0.14; to A40G G41U, 0.166. For G38A G41A the value was 0.28.

Regarding A40C G47U, the self-cleavage stood at 0.228. Turning to G39A C46G, the self-cleavage came out at 0.537.

As to G39C G44U, the self-cleavage was 0.169.

Consider U37C C46U, for which the self-cleavage was 0.627.

Turning to G38U G39U, the self-cleavage was 0.0892. For the variant G42A C46U, the self-cleavage came to 0.349. G42A C46A: the self-cleavage came out at 0.251. To G36U G41U belongs 0.0887; to G36U G41C, 0.114; to G36U G41A, 0.124. To G41U G48U belongs 0.584. For G41U G48C the value was 0.738; for A40C G45U, 0.171.

As to A40C G45A, the self-cleavage is 0.23.

On to A40C G45C, for which the self-cleavage was found to be 0.154. To U37G G45A belongs 0.544; to U37G G45U, 0.47. To U37G G45C belongs 0.268; to G43C G48U, 0.138.

Consider G44A G45A, for which the self-cleavage is 0.906.

Turning to G44A G45C, the self-cleavage was found to be 0.535. As for G38A G39U, the self-cleavage worked out at 0.142. As for G38A G39C, the self-cleavage is 0.175. On to G38A G39A, for which the self-cleavage was found to be 0.4. Take G41U G42A: the self-cleavage stood at 0.136.

Take U37C: the self-cleavage is 0.738. For U37G the value was 0.861. For U37A the value was 0.883; for G39U G42C, 0.133; for G38A G43U, 0.195. To U37A G39C belongs 0.121; to U37G A40U, 0.128; to U37G A40C, 0.163. Take G38C A40U: the self-cleavage came out at 0.129. For G39A G42U, the self-cleavage is 0.164. For G39A G42A the value was 0.146; for G39U G45U, 0.141. Regarding G39U G45A, the self-cleavage was 0.151. To G42C G44A belongs 0.396; to G42C G44C, 0.17. Regarding G39U G44A, the self-cleavage was determined as 0.15. To G39U G44C belongs 0.155; to A40C G42U, 0.139.

As for A40C G42A, the self-cleavage came out at 0.152.

For the variant G38A G42U, the self-cleavage was determined as 0.133.

For the variant A40U G43U, the self-cleavage was 0.0936. As to G44A G47U, the self-cleavage came to 0.922. To G44A G47C belongs 0.828; to G38C G42A, 0.229; to A40C G43U, 0.136. With A40C G43A, the self-cleavage came out at 0.138. In the case of G38A G45U, the self-cleavage amounted to 0.737. For G38A G45C the value was 0.65; for G42U G45U, 0.191; for G42U G45A, 0.294.

As to G42U G45C, the self-cleavage is 0.203.

Take G42U G43U: the self-cleavage was found to be 0.127. For G42U G43C the value was 0.114. To G41U G47A belongs 0.349; to A40G G44A, 0.157. Take G36U U37C: the self-cleavage turned out to be 0.283. Take G36U U37A: the self-cleavage was determined as 0.177. To G39A G43U belongs 0.134. To A40G G48U belongs 0.131. To G36C G39A belongs 0.122; to G36C G39U, 0.128. With G36C G39C, the self-cleavage came to 0.113. For U37G G39A, the self-cleavage was 0.126. Take A40C G48U: the self-cleavage amounted to 0.284. For A40C G48A the value was 0.192; for A40U G44U, 0.183; for A40U G42C, 0.157. To A40U G42A belongs 0.136; to G41A G42C, 0.094. For G41A G42U, the self-cleavage was 0.156.

As for G41A G42A, the self-cleavage was 0.129. For G43A G44U the value was 0.271; for G43A G44C, 0.465; for G43A G44A, 0.267. Take A40G C46G: the self-cleavage worked out at 0.184. In the case of A35U G44U, the self-cleavage is 0.92. For A35U G44C the value was 0.974. As for G42A G43C, the self-cleavage worked out at 0.113. Turning to G41C G44U, the self-cleavage was determined as 0.147. To G39A G45C belongs 0.234; to G39A G45U, 0.231. To G36A belongs 0.843.

G36C: the self-cleavage worked out at 0.691.

For G36U, the self-cleavage stood at 0.479.

On to G39C G48C, for which the self-cleavage is 0.161.

G39C G48U: the self-cleavage was 0.198. For G43C G45C the value was 0.267; for G43C G45U, 0.275; for U37G G43C, 0.0693. With G36U G42U, the self-cleavage amounted to 0.103. For G43A the value was 0.328; for G43U, 0.537; for G43C, 0.227.

In the case of G38C G48U, the self-cleavage came out at 1.06. For G36U G38C the value was 0.286; for G41A, 0.665; for G41U, 0.752. For G41C the value was 0.326. G39U A40C: the self-cleavage is 0.134. Regarding G39U A40U, the self-cleavage was determined as 0.158. With G39U A40G, the self-cleavage is 0.128. To G42A G45C belongs 0.187; to G42A G45U, 0.153; to G42U G44U, 0.196. Consider G42U G44C, for which the self-cleavage was 0.202.

Regarding G42C G43U, the self-cleavage turned out to be 0.137. To G42C G43C belongs 0.365; to A40U G48A, 0.159. As for A40U G48C, the self-cleavage turned out to be 0.209.

Turning to A40U G48U, the self-cleavage was 0.21. In the case of U37C G41U, the self-cleavage was 0.126. For U37C G41C the value was 0.087.

In the case of U37C G41A, the self-cleavage was 0.134. In the case of A40U G45C, the self-cleavage amounted to 0.129. For the variant A40U G45A, the self-cleavage was determined as 0.192. With A40U G45U, the self-cleavage came to 0.177. Consider G38U G44U, for which the self-cleavage turned out to be 0.915. G43U G48A: the self-cleavage was 0.175. On to G43U G48U, for which the self-cleavage is 0.198. Consider G43U G48C, for which the self-cleavage was found to be 0.205. Consider G44A, for which the self-cleavage turned out to be 0.959. To G41C G45U belongs 0.429; to A40U C46U, 0.163. On to A40U C46G, for which the self-cleavage came out at 0.16. To G38C C46G belongs 0.801; to G38C C46A, 0.791; to G36C G38U, 0.116.

In the case of G38U G45A, the self-cleavage was found to be 0.827. To G38U G45U belongs 0.707; to G38U G45C, 0.407. In the case of G41A C46U, the self-cleavage worked out at 0.612. Consider G41A C46G, for which the self-cleavage is 0.429. With G41A C46A, the self-cleavage is 0.356.

On to U37A C46A, for which the self-cleavage turned out to be 0.844.

Regarding G38C G39C, the self-cleavage was 0.127. In the case of G38C G39U, the self-cleavage is 0.164. For U37A G43A the value was 0.145.

Consider U37A G43C, for which the self-cleavage was found to be 0.149.
